From US20190194324A1 (Johns Hopkins, published 2019) come the findings set out here.

Assay [1] has as its target T1, Human α-syn PFF (human, UniProt P37840 1-140). Description: expression cloning screen of 352 transmembrane proteins in SH-SY5Y cells.
The target of assay [2] is T2, α-syn-biotin PFF (biotin-labelled α-synuclein pre-formed fibrils) (mouse, UniProt O55042 1-140). Description: alkaline phosphatase binding assay on cultured cortical neurons, WT minus LAG3-/-.
Assay [3] addresses T2, α-syn-biotin PFF (biotin-labelled …). Description: cell surface binding assay on cells overexpressing the deletion mutant.
Assay [4] addresses T1, Human α-syn PFF. Description: expression cloning screen in SH-SY5Y cells, streptavidin-AP staining.
Assay [5] concerns the target α-syn-biotin PFF (biotin-labelled α-synuclein pre-formed fibrils) (mouse, UniProt O55042 1-140). Description: cell surface binding on LAG3-overexpressing SH-SY5Y cells, Scatchard analysis; 0% or 0.1% Triton X-100 (the legend marks both values only 'TX-100').

One may read the Kd as the concentration at which binding is half-saturated.

B1: APLP1 (NM_005166) expressed in SH-SY5Y cells (Origene GFC-transfection array clone) (receptor)
chain: SLAGGSPGAAEAPGSAQVAGLCGRLTLHRDLRTGRWEPDPQRSRRCLRDPQRVLEYCRQMYPELQIARVEQATQAIPMERWCGGSRSGSCAHPHHQVVPFRCLPGEFVSEALLVPEGCRFLHQERMDQCESSTRRHQEAQEACSSQGLILHGSGMLLPCGSDRFRGVEYVCCPPPGTPDPSGTAVGDPSTRSWPPGSRVEGAEDEEEEESFPQPVDDYFVEPPQAEEEEETVPPPSSHTLAVVGKVTPTPRPTDGVDIYFGMPGEISEHEGFLRAKMDLEERRMRQINEVMREWAMADNQSKNLPKADRQALNEHFQSILQTLEEQVSGERQRLVETHATRVIALINDQRRAALEGFLAALQADPPQAERVLLALRRYLRAEQKEQRHTLRHYQHVAAVDPEKAQQMRFQVHTHLQVIEERVNQSLGLLDQNPHLAQELRPQIQELLHSEHLGPSELEAPAPGGSSEDKGGLQPPDSKDDTPMTLPKGSTEQDAASPEKEKMNPLEQYERKVNASVPRGFPFHSSEIQRDELAPAGTGVSREAVSGLLIMGAGGGSLIVLSMLLLRRKKPYGAISHGVVEVDPMLTLEEQQLRELQRHGYENPTYRFLEERP
notes: whole, on cells; also called amyloid beta (A4) precursor-like protein 1
In the case of B1, the binding result in assay [1] is listed as “binds”.

B2: mouse LAG3 (receptor)
chain: GPGKELPVVWAQEGAPVHLPCSLKSPNLDPNFLRRGGVIWQHQPDSGQPTPIPALDLHQGMPSPRQPAPGRYTVLSVAPGGLRSGRQPLHPHVQLEERGLQRGDFSLWLRPALRTDAGEYHATVRLPNRALSCSLRLRVGQASMIASPSGVLKLSDWVLLNCSFSRPDRPVSVHWFQGQNRVPVYNSPRHFLAETFLLLPQVSPLDSGTWGCVLTYRDGFNVSITYNLKVLGLEPVAPLTVYAAEGSRVELPCHLPPGVGTPSLLIAKWTPPGGGPELPVAGKSGNFTLHLEAVGLAQAGTYTCSIHLQGQQLNATVTLAVITVTPKSFGLPGSRGKLLCEVTPASGKERFVWRPLNNLSRSCPGPVLEIQEARLLAERWQCQLYEGQRLLGATVYAAESSSGAHSARRISGDLKGGHLVLVLILGALSLFLLVAGAFGFHWWRKQLLLRRFSALEHGIQPFPAQRKIEELERELETEMGQEPEPEPEPQLEPEPRQL
notes: whole, on cells; In the in vivo co-IP the protein came from brain stem lysates of mice; also called LAG3 full-length (FL); neuronal LAG3
B2 yielded a Kd in assay [2] of 103 nM.

B3: mouse LAG3 deletion mutant ΔD1 (receptor)
chain: IASPSGVLKLSDWVLLNCSFSRPDRPVSVHWFQGQNRVPVYNSPRHFLAETFLLLPQVSPLDSGTWGCVLTYRDGFNVSITYNLKVLGLEPVAPLTVYAAEGSRVELPCHLPPGVGTPSLLIAKWTPPGGGPELPVAGKSGNFTLHLEAVGLAQAGTYTCSIHLQGQQLNATVTLAVITVTPKSFGLPGSRGKLLCEVTPASGKERFVWRPLNNLSRSCPGPVLEIQEARLLAERWQCQLYEGQRLLGATVYAAESSSGAHSARRISGDLKGGHLVLVLILGALSLFLLVAGAFGFHWWRKQLLLRRFSALEHGIQPFPAQRKIEELERELETEMGQEPEPEPEPQLEPEPRQL
notes: whole, on cells; Expressed in HEK293FT cells; also called D1 domain deletion mutant
As for B3, the binding result in assay [3] was “no binding”.

B4: LAG3 (NM_002286) expressed in SH-SY5Y cells (Origene GFC-transfection array clone) (receptor)
chain: LQPGAEVPVVWAQEGAPAQLPCSPTIPLQDLSLLRRAGVTWQHQPDSGPPAAAPGHPLAPGPHPAAPSSWGPRPRRYTVLSVGPGGLRSGRLPLQPRVQLDERGRQRGDFSLWLRPARRADAGEYRAAVHLRDRALSCRLRLRLGQASMTASPPGSLRASDWVILNCSFSRPDRPASVHWFRNRGQGRVPVRESPHHHLAESFLFLPQVSPMDSGPWGCILTYRDGFNVSIMYNLTVLGLEPPTPLTVYAGAGSRVGLPCRLPAGVGTRSFLTAKWTPPGGGPDLLVTGDNGDFTLRLEDVSQAQAGTYTCHIHLQEQQLNATVTLAIITVTPKSFGSPGSLGKLLCEVTPVSGQERFVWSSLDTPSQRSFSGPWLEAQEAQLLSQPWQCQLYQGERLLGAAVYFTELSSPGAQRSGRAPGALPAGHLLLFLILGVLSLLLLVTGAFGFHLWRRQWRPRRFSALEQGIHPPQAQSKIEELEQEPEPEPEPEPEPEPEPEPEQL
notes: The clone of the screen is named by NM_002286
Turning to B4, the binding result in assay [4] is “binds”.

B5: LAG3 overexpressed in transfected cells (SH-SY5Y; HEK293FT) (receptor)
chain: B4 chain
Molecule B5 had a Kd in assay [5] of 71 nM.
